In the DeepSol protein solubility set:

Assay: soluble on expression in E. coli; label from the status in PepcDB or PDB records

Sequence	soluble on expression in E. coli
MGSSHHHHHHSSGLVPRGSHMAAPIRFFELNTGAKLPCVGLGTYAMVATAIEQAIKIGYRHIDCASIYGNEKEIGGVLKKLIGDGFVKREELFITSKLWSNDHLPEDVPKALEKTLQDLQIDYVDLYLIHWPASLKKESLMPTPEMLTKPDITSTWKAMEALYDSGKARAIGVSNFSSKKLTDLLNVARVTPAVNQVECHPVWQQQGLHELCKSKGVHLSGYSPLGSQSKGEVRLKVLQNPIVTEVAEKLGKTTAQVALRWGLQTGHSVLPKSSSGARLKENLDVFDWSIPEDLFTKFSNIPQEKFCRATEFAHETHGFYKTIEELWDGEI	soluble
MKSFKEQYTLDERLAESREIIAKYPTRIPVIAEKYCKTDLPAIEKKKFLVPRDMSVGQFIYILSARLHLSPGKALFVFVNNTLPQTAALMDSVYESYKDDDGFVYMCYSSEKTFG	not soluble
AHHHHHHGSLKLVENVVGRVSEEENKVPEVQVPQSSIDEELKKIVEQIKARIYVVGVGGAGCNTVNRMMEVGVTGAKIIAVNTDAQDLLKVKAHQKILIGKELTRGLGAGNDPKIGEEAAKESERELRDALEGADMVFITCGLGGGTGTGAAPVIAEIARKMGALTVSVVTLPFTMEGIRRAKNAEYGLKRLVKYSDTVIVIPNDKLLEVAPKLPIQMAFKVADEILVQAVKGITELITKPGLVNLDFNDVRAVMKDGGVAMIGIGESDSEKRALEAAEQALNSPLLDVDISGATGALIHISGADVKLEEAQQIIEYVTRNVDPKAQVIWGIQLEPELEKTIRVMVVITGVTSRYITPEEETPLETPEESPSIEISIPEL	soluble
MGSDKIHHHHHHMAVFSQYFGKLNQYKNALTQKVDNYWTLSCFQDVAAINPWLVPGQGRKTGSSIVLKNDVLVELGSPEAGSCSMTLYTNSPHQITDGWITLMGSDITEYTPKKLPFGQVIMVGGEHLTEEDYYYLLQNLNVSEMIEGYMIRSTAESIWCRISKDAAKNGFNFHVLGSVLNWHIKQILPKVKAVEIVFVTTTKEDIEELNQISKEVGEIGRRIKERIWREKGVDIYKCVPGGHCGACEDKTVCDTIRKIGAGR	not soluble
MSLTPQQVFVKCHFDYNPYNDNLIPCKEAGLKFSKGEILQIVNREDPNWWQASHVKEGGSAGLIPSQFLEEKRKAFVRRDWDNSGPFCGTISSKKKKKMMYLTTRNAEFDRHEIQIYEEVAKMPPFQRKTLVLIGAQGVGRRSLKNRFIVLNPTRFGTTVPFTSRKPREDEKDGQAYKFVSRSEMEADIKAGKYLEHGEYEGNLYGTKIDSILEVVQTGRTCILDVNPQALKVLRTSEFMPYVVFIAAPELETLRAMHKAVVDAGITTKLLTDSDLKKTVDESARIQRAYNHYFDLIIINDNLDKAFEKLQTAIEKLRMEPQWVPISWVYEGHHHHHH	soluble
MGSDKIHHHHHHMKLAFICTEKLPAPAVRGGAIQMMIDGVTPYFSSRYDLTIFSIEDPSLPKRETKDGVHYIHLPKEHYREAVAEELRASSFDLIHVFNRPLNVSLYKKASPNSKIVLSLHNEMFSEKKMTFAQGKEVLDNVSMITTVSEFIKQTVIERFPEAEDITKVVYSGVDLNSYPPVWTMKGSAVRKTYRKKYGIEDKKVILFAGRLSPTKGPHLLIHSMRRILQQHPDAVLVIAGGKWFSDDSENQYVTYLRTLALPYRDHIIFTKFIPADDIPNLFLMADVFVCSSQWNEPLARVNYEAMAAGTPLITTNRGGNGEVVKHEVTGLVIDSYNKPSSFAKAIDRAFTDQELMNKMTKNARKHVEALFTFTHAAKRLNTVYQSVLTPKNKQFPPPFLTQNFDLSSINQLFVKAKT	not soluble
MTNSIHEMIRASFKCEDMVKCVLGLKSLDIEAYKALLMHGPQTAEKLGEILNRERSTAYRSLQNLIACGIVYRETRSIESGGYYYEYVAIEPQEMKRMVKKNVDEWYNQMNELIEKMDDKVNALVTRLEDDEAKQK	not soluble
MGIMEAERKTTGWAARDPSGILSPYTYTLRETGPEDVNIRIICCGICHTDLHQTKNDLGMSNYPMVPGHEVVGEVVEVGSDVSKFTVGDIVGVGCLVGCCGGCSPCERDLEQYCPKKIWSYNDVYINGQPTQGGFAKATVVHQKFVVKIPEGMAVEQAAPLLCAGVTVYSPLSHFGLKQPGLRGGILGLGGVGHMGVKIAKAMGHHVTVISSSNKKREEALQDLGADDYVIGSDQAKMSELADSLDYVIDTVPVHHALEPYLSLLKLDGKLILMGVINNPLQFLTPLLMLGRKVITGSFIGSMKETEEMLEFCKEKGLSSIIEVVKMDYVNTAFERLEKNDVRYRFVVDVEGSNLDA	soluble
RDSGTVWGALGHGINLNIPNFQMTDDIDEVRWERGSTLVAEFKRKMKPFLKSGAFEILANGDLKIKNLTRDDSGTYNVTVYSTNGTRILDKALDLRILE	soluble
MDLICMYVFKGEESFGESIDVYGDYLIVKVGTEFLAVPKKSIKSVEDGRIVIGEFDEEEARELGRKWLEEKSKPVTLEELKSYGFGEEGE	not soluble
MALTSVSVYELSRLGPPQQPVRRRSNSTKVRRKDAELGSVDRKRNPKRNQIQPQHNESITITYMGRPRSPSVDLPTSPPIPSVIRQRRSSSTVAKKLPQSASNPSFLRKQGSSSSLSNGLWTDCIEVVNEIGVMAKMESRKIRRLRMAVYRRVRISDDEEMVLTASRALSKCHGWTLDTCHDYLPVIIDNIISMDTSNRIIAAEGLAAIADSLGERLVKFAGMNSHRIGVDIAAEERSEKAKACIQLLRSVVRKRDWYYRHLDVESIDRLDATMERLKSI	not soluble
MKQDGEEGTEEDTEEKCTICLSILEEGEDVRRLPCMHLFHQVCVDQWLITNKKCPICRVDIEAQLPSES	soluble
SAFQKAASLLGAPIGHDFCVISLSDLMTPWERIERRILAAAQADFVTAVYNPKSDGRYWQIYRLREIFLREGRSPETPVGYVRQAGREEQEIHITTLAAFDPETVDMFTVVLIGNSQTY	not soluble
MAPCLENVACVNLSAMPPAPPSPQPVSHKQAATLCRQGRTCALKSGSNESGGSVTSTYTSYRLISQDIGKSLERVSKQPDVARETEYYREKIGSVKSIDDFMADTRLYNYALKAHGLEDMAYAKAFIRKVLTEGASDKNAFANKLSDNRYAELAKSLDFAGLGAAATATEAAKSGVIGNYARQTLEQEAGDDNNGVRLALYFERKAPTIKSGLDFLADDALAQVFRTTFNLPDAFAAADVDKQAALIEKSINIKDLQDPEKVGKLLERFTIMWEMQNPSTTYDPLAVFGSSSGYGISPDLLISINSLKLGGKAAALEHHHHHH	soluble
MPRARCKRCLRPTGYCLCALIPQIESRTRVLILQHPDEVSHALNTARLAALGLVNAQLCVGEVFDDLHTLLNPPGYQARLLFPGDAAETLTAYAPDATPMLLVVPDGTWRKARKLLHLNPLLAALPRVTLGSVPASRYRLRKAPGPEALSTLEAIVHTLQTLEAPNAFEALLKPFDALIDGQIQAMGNDTYQRNHGNQRLEHHHHHH	not soluble
MMAIQASDMDISRFGSEIFRNSPRQSDLMIVSGTVTKKMAPRVRRIYDEMPYPKYVIAQGVCVIQGGPYNQGYSVVLGVDKVVPVDVYVPGCPPTPEALTNGIILLQKKIRGEADRLEHHHHHH	not soluble
GSSHHHHHHSSGRENLYFQGHMPKRRKSVTGEIVLITGAGHGIGRLTAYEFAKLKSKLVLWDINKHGLEETAAKCKGLGAKVHTFVVDCSNREDIYSSAKKVKAEIGDVSILVNNAGVVYTSDLFATQDPQIEKTFEVNVLAHFWTTKAFLPAMTKNNHGHIVTVASAAGHVSVPFLLAYCSSKFAAVGFHKTLTDELAALQITGVKTTCLCPNFVNTGFIKNPSTSLGPTLEPEEVVNRLMHGILTEQKMIFIPSSIAFLTTLERILPEGS	soluble
MGSDKIHHHHHHMPQDTISVSLLDSRIQASRPNYYNPLLVYKTAKIKVNKDAASYKILNLTVNNYEKQIETLEKENGNGEDQFGKEKTLLKTAMSNFFNSSEESLKSADLFIYKDKPEELKNYLKVHRHTFVVLINTEGDASDDGLKIYKDDYNKFKKPSTFFVFSTKEQEIKELFKDKGNTEKERNIAVYSNNKDNLHLKFISQYLHQASIFHAVNPYGMPLAATPLVDDTVIGKLRTAKINFYSLLNETGLDGVPAFKEGVDLAGGAIDEQFTYHYIKNEAIIELIRIWNKNNRQNSKLSALQLSGARDNAYTSAIECLLKRFVDRGLIIEYKNLRLTLSPTPQLKLELSVNITYNFSINAVALVITTQDIVDYQNSLSA	not soluble
MGQSFSSSFNAKQTSSSTPQKSTKTPTCSDPRSPSQDIERTPIQVKTVENDENGSSESSTTKADKPRKTSLRQKMFARKKNMNSETDE	not soluble
MSLTEAPRVRLAEAEVFERPVEFRFPFRFGSARVATAPQAFVRVRVEDARGRSAIGWSAEMMMPKWFDKNPGLSPEDNVEQLRASLRLAIEGLTSLQAQTPFGLHAAAEGDHHRAAAGHGLPALVASYGLALLDRAILDALCRMTGASAAGAVRANLPGITGATAPDLEGFDLARFLSRLEPGPRLAVRHTIGLADALTAADLAPGQRLEDGLPQTLEEVIAAYGHRYFKIKVSGRPAEDTRRLLAIAAVLDQRVDAYRVTLDGNEQFENADAVADLLDRIAEEPRLEKLRASALFFEQPIVRAEALSRPVTEVAGRMPLEIDESDGDIGAFLRARALGYAGISSKSCKGFYRALVNRARVEMWNAEAGAARSFMSAEDLTTQSGLALQQDLVLAALVGAGHVERNGHHYVDGMAGAPAAEQAAYLAHHGDLYESGSGRARLAIRGGEITFSTVLRSVGLGSSVEPDWVAMVSEGHHHHHH	not soluble
MTLMNTENEPTGMLTIRVSAMPKDANSAYDIFGGWVMAQMDMAAGIRSAERARGRTVTAAVREMAFARPVKIGDTLCVYTDITRVGRTSITLRVEAWAKRYLSDKRDLVTHAEFIMVALDADGKPTPAPQEDLEHHHHHH	not soluble
MQRTLNVGVILCESFISNAQNPVNSYIKIYENVRMFEFAIKLLQESRINFQKILLYVLEEQIPLVEKVVAKYENCWVFRSKHNEVEDIYEAKGFIEDKYKIGLKSSKNQASSYYDNCCFVVLEACRPLTSKKVVKNVYEKAMIDGAAVAVLPFERQLVCGDNTKAVRQLKDKGNMNYWRQSSTWELQFPQAYTLNKLNQYHKNLFMKARNMLDLMNISAKNPLSIVDGSAYSFRVVTSLDFEILLGILRNG	not soluble
MSLDSLNLNKHISGQFNAELESIRTQVMTMGGMVEQQLSDAITAMHNQDSELAKRVVEGDHQVNMMEVAIDEACVRIIAKRQPTASDLRLVMAIIKTIAELERIGDVADKICRTALEKFSQQHQPLLVSLESLGRHTVQMLHDVLDAFARMDLDEAVRIYREDKKVDQEYEGIVRQLMTYMMEDSRTIPSVLTALFCARSIERIGDRCQNICEYIFYFVKGQDFRHVGGDELDKLLAGKDPKEGHHHHHH	soluble
MGSDKIHHHHHHMTNIGETIHQIRLSKGLTQQEVYSGIISRSFASRFESGANDIGASKLFAILDNLAISADELRFIHQNYQPSAYDQALWTIRHAYETLNFPALATWIREHRHSPHAYEQLIASYASILMLSYDHRSIGITTTTQPAFDHLRQAKTWTLQELKLVPVLIPIIASIDGLAALTPLTTRMAANCASYQTAWGDPFHVSNDLLDFYGSLFQTKLNFHDFQSAQNLKTKFTAIDSHQLNWDGRLSQQFWLGIWNLYFGDWQIGNQLLDEVSVLETHHHPRIDNTLFAIRNVRTKQAQTYRQSHQSHKHL	not soluble
GITPKYTATAKVYMVSASKNSVVDLADLSIGTSLSEDYAELLHVRPIIEAINEENDLGYTYEQLNGMIDISTVEDTRILKISATSIKPEEAKTIANALAEKAVTEIPKLMGTSSPNIAERAITPKGKSSPSLKKN	soluble
